The DeepSol protein solubility set

assay: soluble on expression in E. coli; label from the status in PepcDB or PDB records

Sequence | soluble on expression in E. coli
MSLDFREVIEQRYHQLLSRYIAELTETSLYQAQKFSRKTIEHQIPPEEIISIHRKVLKELYPSLPEDVFHSLDFLIEVMIGYGMAYQEHQTLRGIQQEIKSEIEIAANVQQTLLGTKVPQEEALDIGAISVPAKQMSGDYYHFVKDKESINIAIADVIGKGIPAALCMSMIKYAMDSLPETGIHPSQVLKNLNRVVEQNVDASMFITMFYANYNMDKHQFTYASAGHEPGFYYSQKDNTFYDLEAKGLVLGISQDYDYKQFDQHLEKGDMIVLFSDGVTECRTENGFLERPDLQKLIEEHMCSSAQEMVKNIYDSLLKLQDFQLHDDFTLIVLRRKVEGGSHHHHHH | soluble
MSLDGMPAKQQHNNTGESVELHFHYPIKGKQEPKNSHLVVLIEPKIEINKVIPESYQKEFEKSLFLQLSSFLERKGYSVSQFKDASEIPQDIKEKALLVLRMDGNVAILEDIVEESDALSEEKVIDMSSGYLNLNFVEPKSEDIIHSFGIDVSKIKAVIERVELRRTNSGGFVPKTFVHRIKETDHDQAIRKIMNQAYHKVMVHITKELSKKHMEHYEKVSSEMKKRKEGHHHHHH | soluble
MSLDIKVQKTEDLIPYEKNPRHNEGAITAVAKSIEKFGFKVPIVVDASNVIVNGHTRLKAAKYLGLKEVPTIIADDLTPEQIKAFRLADNKVGEIATWDEELLNAELDELADLDLDFDMTEFGFDLPDIEGEEVEVIEDEFEEELPAEPISKLGDIYQLGRHRLMCGDSTNSLEVEKLMGNKKADLLITDPPYNVAYEGKGKEALTIKNDSKETNEFHSFLYEAFSAAINNMKLGSSFYVWYASSEVVNFHTALEEAGFLVKQELIWNKNSMVLSRQDYHWKHEPCLYGWASGGSHSWYSDRKQTTILNFDRPTVNKEHPTMKPVALFDYQIKNSSKQGDCILDLFGGSGTTLIACEQNEREAYLMELDPRYVDVIIARWEAFTGEVAVKISGNDTAVVDGEGHHHHHH | soluble
MSLDKNDVVKKILESKKYENLDSDIVEKVVSISEKKYKLKEVENYSKKKLHQIWGSYYSAYPNWDKLLKKYNQGQLSIEDLLKIHSSTNERVATLNDFYTYVFGNIKHVSSILDFGCGFNPLALYQWNENEKIIYHAYDIDRAEIAFLSSIIGKLKTTIKYRFLNKESDVYKGTYDVVFLLKMLPVLKQQDVNILDFLQLFHTQNFVISFPIKSLSGKEKGMEENYQLWFESFTKGWIKILDSKVIGNELVYITSGFQKEGHHHHHH | soluble
MSLDKSLLKIVTNETGVATTTVEKVIALLDEGNTVPFIARYRKEVTGGLDEVKIKSIQDKWNYVVNLSERKQEVLRIIEEQGKLTKELENDIKAATQLQRVEDLYRPYKQKRRTRATIAKEKGLEPLALLVWSQEKDIDLQEEAKQYFSEEHELHTTEDVLQGINDIIAEWISDDAKYRDYIRDITFKRGLIQSEVKKQEDDEKGIYEMYYSYSEAVRSLVSHRILALNRGEKEKILKVQIEPPVEQITSYLEKQTIKNNSNEQITNSLKAAVEDSYKRLIQPSIEREIRNELTEKAEAQAIEVFSVNLKNLLLQPPLKGKVVLSVDPAFRTGCKLAVVDETGKVHHIGVIYPTAPKNDVKGAEKVVLQLIEQFSVELIAIGNGTASRETEQFISDVIRNKELDLPYIIVNEAGASVYSASPLAREEFPDLQVEERSAVSIARRVQDPLAELVKIDPKSIGVGQYQHDVSQKELSGSLSFVVETAVNQVGVNVNTASSSLLQYVSGLSKTVANNMVKQRNEEGKFTNRKQLKKIPRLGAKTYEQAIGFLRIPDGDTILDRTPIHPESYDQTKNLLQMLGYTENDIGSEKLQQDLNNIDKKATAEKLEIGLPTLEDIMEALGKPGRDPRDDFPQPLLKKNVMNMEDLKSGMELQGTVRNVVDFGVFVDIGVKQDGLVHISKMSKQFVKHPMDIASVGDVVTVWVDQVDVQKGRIALTMVGNDEGHHHHHH | soluble
MSLDLLFSECNDEIDNAKLIMKERRFTASYTFAKFSTGSMLLTKDIVGKSGVSIKRLPTELQRKFLFDDVYLDKEIEKVTIEARKSNPYPQISESSLLFKDALDYMEKTSSDYNLWKLSSILFDPVSYPYKTDNDQVKMALLKKERHCRLTSWIVSQIGPEIEEKIRNSSNEIEQIFLYLLLNDVVRASKLAIESKNGHLSVLISYLGSNDPRIRDLAELQLQKWSTGGCSIDKNISKIYKLLSGSPFEGLFSLKELESEFSWLCLLNLTLCYGQIDEYSLESLVQSHLDKFSLPYDDPIGVIFQLYAANENTEKLYKEVRQRTNALDVQFCWYLIQTLRFNGTRVFSKETSDEATFAFAAQLEFAQLHGHSLFVSCFLNDDKAAEDTIKRLVMREITLLRASTNDHILNRLKIPSQLIFNAQALKDRYEGNYLSEVQNLLLGSSYDLAEMAIVTSLGPRLLLSNNPVQNNELKTLREILNEFPDSERDKWSVSINVFEVYLKLVLDNVETQETIDSLISGMKIFYDQYKHCREVAACCNVMSQEIVSKILEKNEGHHHHHH | not soluble
